Experimental data taken from paper PMC9176245.
Values joined by “and” are separate entries in the source; they are usually repeats but may differ in a detail not shown here. Equal values may be shown once.

What was measured:
Experiment in all cases: filter binding
[1] = target: T1, Cbf5;Nop10;Gar1;Nhp2 (Saccharomyces cerevisiae;Saccharomyces cerevisiae;Saccharomyces cerevisiae;Saccharomyces cerevisiae) (UniProt P33322+Q6Q547+P28007+P32495); details: 20 mM HEPES-KOH pH 7.4, 150 mM NaCl, 1.5 mM MgCl2, 10% glycerol, 30°C, 10 min; nitrocellulose filtration
T1 sequence 1: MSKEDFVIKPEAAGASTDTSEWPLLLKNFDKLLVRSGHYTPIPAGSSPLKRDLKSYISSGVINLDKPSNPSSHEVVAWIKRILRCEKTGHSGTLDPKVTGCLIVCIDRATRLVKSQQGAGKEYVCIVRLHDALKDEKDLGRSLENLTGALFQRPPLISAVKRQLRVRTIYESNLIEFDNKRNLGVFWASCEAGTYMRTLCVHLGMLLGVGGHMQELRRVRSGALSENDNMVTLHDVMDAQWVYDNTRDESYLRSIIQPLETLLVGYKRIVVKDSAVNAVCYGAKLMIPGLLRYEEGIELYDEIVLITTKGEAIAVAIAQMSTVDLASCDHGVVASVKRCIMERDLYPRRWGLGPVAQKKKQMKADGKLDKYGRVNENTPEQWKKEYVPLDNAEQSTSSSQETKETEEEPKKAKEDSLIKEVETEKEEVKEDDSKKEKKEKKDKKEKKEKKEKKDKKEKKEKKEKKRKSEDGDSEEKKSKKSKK
T1 sequence 2: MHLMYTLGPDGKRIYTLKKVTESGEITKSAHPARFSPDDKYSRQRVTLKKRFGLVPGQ
T1 sequence 3: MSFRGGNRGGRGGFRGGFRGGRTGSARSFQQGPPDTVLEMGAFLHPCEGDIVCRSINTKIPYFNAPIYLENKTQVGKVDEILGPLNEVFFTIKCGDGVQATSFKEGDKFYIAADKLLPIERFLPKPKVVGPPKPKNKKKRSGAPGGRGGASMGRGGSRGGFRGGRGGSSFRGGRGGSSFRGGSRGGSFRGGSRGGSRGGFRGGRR
T1 sequence 4: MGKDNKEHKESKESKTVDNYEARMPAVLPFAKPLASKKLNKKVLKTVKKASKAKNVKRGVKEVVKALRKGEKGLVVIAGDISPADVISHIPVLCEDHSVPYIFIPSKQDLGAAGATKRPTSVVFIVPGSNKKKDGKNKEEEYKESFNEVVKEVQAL

[2] = target: T2, Utp23 (Saccharomyces cerevisiae?) (UniProt Q12339); details: 20 mM HEPES-KOH pH 7.4, 150 mM NaCl, 1.5 mM MgCl2, 10% glycerol, 30°C, 10 min; nitrocellulose filtration
T2 sequence: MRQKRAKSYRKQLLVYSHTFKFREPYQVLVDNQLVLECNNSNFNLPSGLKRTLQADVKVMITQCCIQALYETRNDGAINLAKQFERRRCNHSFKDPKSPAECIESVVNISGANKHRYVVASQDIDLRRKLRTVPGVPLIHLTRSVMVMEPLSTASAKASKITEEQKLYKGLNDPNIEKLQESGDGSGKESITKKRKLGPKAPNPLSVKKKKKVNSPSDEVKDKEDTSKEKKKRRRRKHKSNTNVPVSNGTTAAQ

[3] = target: T3, Cbf5;Nop10;Gar1 (Saccharomyces cerevisiae;Saccharomyces cerevisiae;Saccharomyces cerevisiae) (UniProt P33322+Q6Q547+P28007); details: no Nhp2; single replicate; 20 mM HEPES-KOH pH 7.4, 150 mM NaCl, 1.5 mM MgCl2, 10% glycerol, 30°C, 10 min; nitrocellulose filtration
T3 sequence 1: T1 sequence 1
T3 sequence 2: T1 sequence 2
T3 sequence 3: T1 sequence 3

[4] = target: T4, Nhp2 (Saccharomyces cerevisiae) (UniProt P32495); details: Nhp2 alone, 20 mM HEPES-KOH pH 7.4, 150 mM NaCl, 1.5 mM MgCl2, 10% glycerol, 30°C, 10 min, nitrocellulose filtration
T4 sequence: T1 sequence 4

Substance | Kd [1] | Kd [2] | Kd [3] | Kd ([4]; replicate 1) | Kd ([4]; replicate 2)
GGGAUUUUUUCGUGUACUGGAUUUCCAACGGGGCCUUUCCUUCUGGCUAACCUUGAGUCCUUGUGGCUCUUGGCGAACCAGGA [C2-ES6H1] | 405 nM and 560 nM |  |  |  | 
GGGCCGACUAGGGAUCGGGUGGUGUUUUUUUAAUGACCCACUCGGCACCUUACGAGAAAUCAAAGUCUUUGGGU [H25/26] | 92 nM |  |  |  | 
GGGUUAAUAGGGACGGUCGGGGGCAUCAGUAUUCAAUUGUCAGAGGUGAAAUUCUUGGAUUUAUUGAAGACUAACUACUGCGAAAGCAUUUGCCAAGGACGUUUUC [H22/23] | 84 nM | 8.8 nM |  |  | 
mitochondrial tRNAMet | 746 nM | < 2 nM |  |  | 
snR30 full-length | 0.9 nM | 17.5 nM | 1.2 nM | 116 nM | 212 nM
snR81 |  | 4.7 nM |  |  | 
